Data on four molecules can be found in article PMC6458997 (Molecular Cell, 2019).

Where a chain is given by its changes, count along the chain named. Names may count otherwise.

The labels stand for the following.
B1: SPbeta AimR (arbitrium peptide receptor / transcription factor AimR of Bacillus subtilis phage SPbeta), full length (natural protein, Bacillus subtilis SPbeta phage, UniProt O64094 1-386, looked up)
chain: MELIRIAMKKDLENDNSLMNKWATVAGLKNPNPLYDFLNHDGKTFNEFSSIVNIVKSQYPDREYELMKDYCLNLDVKTKAARSALEYADANMFFEIEDVLIDSMISCSNMKSKEYGKVYKIHRELSNSVITEFEAVKRLGKLNIKTPEMNSFSRLLLLYHYLSTGNFSPMAQLIKQIDLSEISENMYIRNTYQTRVHVLMSNIKLNENSLEECREYSKKALESTNILRFQVFSYLTIGNSLLFSNYELAQENFLKGLSISVQNENYNMIFQQALCFLNNVWRKENKWINFESDSIMDLQEQAHCFINFNENSKAKEVLDKLDLLVHNDNELAMHYYLKGRLEQNKACFYSSIEYFKKSNDKFLIRLPLLELQKMGENQKLLELLLL
notes: AimR of Bacillus subtilis phage SPbeta, amplified from genomic DNA of Bacillus subtilis strain 168; full-length AimR (residues 1-386); Cloned in pLicSGC1 with N-terminal 6xHis tag and TEV site; digested with TEV protease; A selenomethionine derivative was used to phase the AimR-AimP structure; also called WT AimR; apo AimR; source: E. coli BL21 (DE3) RIL, purified (HisTrap FF, TEV digestion, …)
B2: SPbeta AimR N202A mutant (natural protein, Bacillus subtilis SPbeta phage)
chain: B1 chain with N202A
B3: SPbeta AimR D360A mutant (natural protein, Bacillus subtilis SPbeta phage)
chain: B1 chain with D360A
B4: SPbeta AimP arbitrium peptide GMPRGA (peptide)
peptide: GMPRGA
notes: active (mature) arbitrium hexapeptide AimP of phage SPbeta, product of the yopL gene, which corresponds to phi3T aimP; also called GMPRGA peptide; SPbeta-specific arbitrium peptide; source: synthetic peptide, bought: ProteoGenix (95% purity)

Data set [1] concerns the molecule itself. The data set can be described thus: SEC-MALS; as the apo run, with 1 mM AimP peptide added to the injected sample and 1 μM peptide in the running buffer (25 mM Tris pH 8, 250 mM NaCl).
Data set [2] deals with the molecule itself. The data set can be described thus: SEC-MALS; 50 μL protein at 5 mg/mL on Superdex 200 HR 10/300 in 25 mM Tris pH 8, 250 mM NaCl; no peptide.
Data set [3] concerns the target B1. The data set is described as follows: thermal shift assay (differential scanning fluorimetry); 20 μM protein, 5x Sypro Orange, 20 mM Tris pH 8, 250 mM NaCl, heated 20 to 85°C; apparent Kd from 10 peptide concentrations from 0 to 2 μM, fitted to a single binding site per monomer. The note with it: both partners purified.

Consider B1, for which the “stoichiometry N” value in data set [1] is 2. For B2, the “stoichiometry N” value in data set [2] was determined as 2.

As for B3, the “stoichiometry N” value in data set [2] was determined as 2. Regarding B4, in data set [3], the Kd was 53.8 nM and the “increment in the melting temperature (Tm) of AimR” value is around 10 °C.
